Patent US20240261333A1 (published 2024)

Experiments:
Experiment in all cases: co-IP with anti-FLAG, mass spectrometry; lysate of cells with N-FLAG B3GNT2
[1] = molecular target: T1, NPM1 (human, UniProt P06748 1-294)
T1 construct: also called NP_001341935.1 (+1)

[2] = molecular target: T2, GALNT2 (human, UniProt Q10471 1-571, limits assumed)
T2 construct: also called NP_001278795.1 (+1)

[3] = molecular target: T3, PJA2 (human, UniProt O43164 2-708)
T3 construct: also called NP_055634.3
T3 sequence (looked up): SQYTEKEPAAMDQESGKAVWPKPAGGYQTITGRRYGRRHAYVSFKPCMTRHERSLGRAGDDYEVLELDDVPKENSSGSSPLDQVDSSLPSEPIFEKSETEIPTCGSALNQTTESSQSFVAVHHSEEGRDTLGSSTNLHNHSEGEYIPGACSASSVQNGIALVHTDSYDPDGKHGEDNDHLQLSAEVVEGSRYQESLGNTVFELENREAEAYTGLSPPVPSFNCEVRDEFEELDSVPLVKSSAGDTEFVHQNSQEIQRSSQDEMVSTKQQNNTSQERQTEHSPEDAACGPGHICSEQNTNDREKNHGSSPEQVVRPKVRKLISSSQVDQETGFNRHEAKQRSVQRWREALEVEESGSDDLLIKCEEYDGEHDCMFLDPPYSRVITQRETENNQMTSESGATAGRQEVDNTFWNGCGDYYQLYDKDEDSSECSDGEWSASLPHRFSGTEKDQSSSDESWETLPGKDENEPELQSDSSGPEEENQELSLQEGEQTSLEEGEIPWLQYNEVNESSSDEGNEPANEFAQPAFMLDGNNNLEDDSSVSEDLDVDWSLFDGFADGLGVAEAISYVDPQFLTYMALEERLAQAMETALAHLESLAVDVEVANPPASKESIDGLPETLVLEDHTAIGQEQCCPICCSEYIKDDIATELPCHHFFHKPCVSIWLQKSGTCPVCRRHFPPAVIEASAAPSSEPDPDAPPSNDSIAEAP

[4] = molecular target: RPS4X (human, UniProt P62701 2-263)
[5] = molecular target: T4, GAPDH (human, UniProt P04406 2-335, limits assumed)
T4 construct: also called NP_001344872.1 (+1)
T4 sequence (P04406 2-335 limits assumed): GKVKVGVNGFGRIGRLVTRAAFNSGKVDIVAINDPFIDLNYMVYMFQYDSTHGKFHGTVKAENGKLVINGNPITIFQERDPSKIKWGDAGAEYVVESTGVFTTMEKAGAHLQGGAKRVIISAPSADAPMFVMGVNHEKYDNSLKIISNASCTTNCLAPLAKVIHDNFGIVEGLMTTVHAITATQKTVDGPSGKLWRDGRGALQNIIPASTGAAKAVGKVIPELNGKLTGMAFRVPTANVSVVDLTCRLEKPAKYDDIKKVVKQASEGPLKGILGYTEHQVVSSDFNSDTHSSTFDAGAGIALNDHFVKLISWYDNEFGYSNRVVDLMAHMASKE

[6] = molecular target: T5, TOR1AIP2 (human, UniProt Q8NFQ8 2-470)
T5 construct: also called NP_001336864.1 (+1)
T5 sequence (Q8NFQ8 2-470 limits assumed): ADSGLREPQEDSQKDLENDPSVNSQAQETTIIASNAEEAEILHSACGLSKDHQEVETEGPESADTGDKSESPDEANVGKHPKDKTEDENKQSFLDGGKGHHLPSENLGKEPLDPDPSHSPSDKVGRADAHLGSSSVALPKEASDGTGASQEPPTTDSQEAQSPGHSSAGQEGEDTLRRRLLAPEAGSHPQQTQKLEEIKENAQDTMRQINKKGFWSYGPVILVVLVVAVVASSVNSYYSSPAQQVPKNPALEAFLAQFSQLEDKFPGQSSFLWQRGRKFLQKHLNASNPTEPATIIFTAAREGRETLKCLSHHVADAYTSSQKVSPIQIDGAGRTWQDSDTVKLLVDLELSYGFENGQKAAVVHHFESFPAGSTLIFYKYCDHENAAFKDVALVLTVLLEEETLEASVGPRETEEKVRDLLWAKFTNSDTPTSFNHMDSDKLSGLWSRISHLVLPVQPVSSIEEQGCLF

T1 sequence (P06748 whole entry): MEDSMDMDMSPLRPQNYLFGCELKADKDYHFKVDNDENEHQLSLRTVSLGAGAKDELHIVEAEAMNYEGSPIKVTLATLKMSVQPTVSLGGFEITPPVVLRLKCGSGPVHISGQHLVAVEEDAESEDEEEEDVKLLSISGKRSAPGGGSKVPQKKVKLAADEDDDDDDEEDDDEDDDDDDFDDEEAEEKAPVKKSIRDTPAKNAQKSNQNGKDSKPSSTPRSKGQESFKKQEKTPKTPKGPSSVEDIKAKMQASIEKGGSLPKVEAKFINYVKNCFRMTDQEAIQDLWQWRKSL
T2 sequence (Q10471 whole entry): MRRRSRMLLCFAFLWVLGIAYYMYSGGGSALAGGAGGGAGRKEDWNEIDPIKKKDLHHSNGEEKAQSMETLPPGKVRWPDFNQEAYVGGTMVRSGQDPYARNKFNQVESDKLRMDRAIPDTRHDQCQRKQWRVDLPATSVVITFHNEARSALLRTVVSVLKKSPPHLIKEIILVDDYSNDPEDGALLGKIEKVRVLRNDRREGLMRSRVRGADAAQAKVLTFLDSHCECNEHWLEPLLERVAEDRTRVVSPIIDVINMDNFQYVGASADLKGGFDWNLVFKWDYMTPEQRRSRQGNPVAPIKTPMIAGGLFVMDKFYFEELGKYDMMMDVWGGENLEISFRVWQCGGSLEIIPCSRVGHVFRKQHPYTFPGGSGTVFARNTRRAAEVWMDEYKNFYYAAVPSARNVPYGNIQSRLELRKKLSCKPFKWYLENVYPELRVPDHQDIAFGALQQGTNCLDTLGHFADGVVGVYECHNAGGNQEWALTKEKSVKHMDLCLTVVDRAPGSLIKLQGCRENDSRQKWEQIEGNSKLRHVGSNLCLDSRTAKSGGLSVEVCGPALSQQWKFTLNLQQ

co-IP mass spectrometry count [1]: 0
co-IP mass spectrometry count [2]: 0
co-IP mass spectrometry count [3]: 0
co-IP mass spectrometry count [4]: 14
co-IP mass spectrometry count [5]: 18
co-IP mass spectrometry count [6]: 0
B1: N-terminal FLAG tagged B3GNT2 (enzyme, human, UniProt Q9NY97 1-397, looked up)
chain: MSVGRRRIKLLGILMMANVFIYFIMEVSKSSSQEKNGKGEVIIPKEKFWKISTPPEAYWNREQEKLNRQYNPILSMLTNQTGEAGRLSNISHLNYCEPDLRVTSVVTGFNNLPDRFKDFLLYLRCRNYSLLIDQPDKCAKKPFLLLAIKSLTPHFARRQAIRESWGQESNAGNQTVVRVFLLGQTPPEDNHPDLSDMLKFESEKHQDILMWNYRDTFFNLSLKEVLFLRWVSTSCPDTEFVFKGDDDVFVNTHHILNYLNSLSKTKAKDLFIGDVIHNAGPHRDKKLKYYIPEVVYSGLYPPYAGGGGFLYSGHLALRLYHITDQVHLYPIDDVYTGMCLQKLGLVPEKHKGFRTFDIEEKNKNNICSYVDLMLVHSRKPQEMIDIWSQLQSAHLKC
notes: Bait of the co-IP; pulled down with mouse anti-FLAG (Millipore Sigma F3165) from cell lysate; also called N-FLAG B3GNT2; N-term FLAG; not shown: N-terminal FLAG tag
